Data on three molecules can be found in patent publication US20250313621A1 (NXERA PHARMA UK, published 2025).

Some results are limits rather than exact numbers.

The target of assay [1] is T1, Wildtype human PAR2 expressed on cells (human, UniProt P55085 37-397).
T1 sequence: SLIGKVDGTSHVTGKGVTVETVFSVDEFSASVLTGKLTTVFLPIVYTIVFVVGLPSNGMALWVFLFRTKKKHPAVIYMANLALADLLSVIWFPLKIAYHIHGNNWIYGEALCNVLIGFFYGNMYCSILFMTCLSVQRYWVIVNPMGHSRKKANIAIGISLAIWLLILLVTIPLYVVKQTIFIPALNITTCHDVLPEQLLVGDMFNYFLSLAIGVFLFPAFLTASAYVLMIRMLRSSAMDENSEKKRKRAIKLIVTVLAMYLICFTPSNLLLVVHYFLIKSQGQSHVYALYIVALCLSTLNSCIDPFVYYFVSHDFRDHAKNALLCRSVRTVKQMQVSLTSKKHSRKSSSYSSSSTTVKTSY
The assay can be described thus: cell-based or functional assay.

Assay [2] deals with Cynomolgus PAR2 on BacMam-infected HEK293 cells (cynomolgus). The experiment in a line: cell-based or functional assay.
Assay [3] concerns the target Rhesus PAR2 on cells (rhesus (Macaca mulatta)). The experiment in a line: cell-based or functional assay.
For assay [4], the target named is T2, Soluble PAR2 StaR (recombinant human PAR2 StaR protein in detergent, construct not stated) (human, UniProt P55085 37-377, limits assumed).
T2 construct: also called purified PAR2
T2 sequence: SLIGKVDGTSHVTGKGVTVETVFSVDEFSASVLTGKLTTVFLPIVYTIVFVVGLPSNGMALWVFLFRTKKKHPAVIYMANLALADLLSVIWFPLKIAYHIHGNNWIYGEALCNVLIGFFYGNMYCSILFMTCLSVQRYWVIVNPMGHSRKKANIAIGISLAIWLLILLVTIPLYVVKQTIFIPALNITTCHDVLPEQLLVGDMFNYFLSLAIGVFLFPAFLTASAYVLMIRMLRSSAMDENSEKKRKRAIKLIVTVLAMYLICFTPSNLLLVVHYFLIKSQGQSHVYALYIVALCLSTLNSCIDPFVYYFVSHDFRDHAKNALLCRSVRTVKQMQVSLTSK
The assay can be described thus: SPR Biacore T200; IgG captured, PAR2 as analyte; 37 C, 30 min dissociation. As to the method:
The assay of PAR2 interaction with anti-PAR2 antibodies was carried out using a Biacore T200 instrument (GE Healthcare). Anti-human IgG antibody (Human Antibody Capture Kit, GE Healthcare) was immobilised by amine coupling in the target and reference flow cells of sensor chip CM3 (GE Healthcare) to a surface density of 2700 to 3000 resonance units (RU). Immobilisation was carried out at 25° C. in HBS-EP+buffer (GE Healthcare). The buffer was then changed to 50 mM HEPES, pH 7.5, 150 mM NaCl, 0.02% LMNG, 0.002% CHS for the PAR2-antibody interaction assay which was carried out at either 25 or 37° C. Each cycle of the assay began with antibody capture in the target flow cell to a level of 400 to 450 RU. PAR2 was then injected over target and reference flow cells at three concentrations, 5 min each, followed by 30-min dissociation. The surface was then regenerated with a solution provided in the kit (Human Antibody Capture Kit, GE Healthcare). With every antibody tested the first cycle was a blank (three injections of the running buffer) and the second a series of 50, 100, and 200 nM PAR2 injections.
In general terms: Surface plasmon resonance follows binding to a sensor surface in real time, without labels.

In assay [5] the target is T1, Wildtype human PAR2 expressed on cells. The assay can be described thus: cell-based or functional assay. This is another data set of the same source.
Assay [6] has as its target T3, PAR2-3: P157: 1-377, glycosylated, pBacMamHisStrepII, full length (human, UniProt P55085 26-377).
T3 construct: detergent-solubilised analyte in SPR, or on infected cells in flow cytometry; also called FL-N PAR2 StaR; FL-N StaR; not shown: C-terminal StrepII and deca-histidine tags
T3 sequence: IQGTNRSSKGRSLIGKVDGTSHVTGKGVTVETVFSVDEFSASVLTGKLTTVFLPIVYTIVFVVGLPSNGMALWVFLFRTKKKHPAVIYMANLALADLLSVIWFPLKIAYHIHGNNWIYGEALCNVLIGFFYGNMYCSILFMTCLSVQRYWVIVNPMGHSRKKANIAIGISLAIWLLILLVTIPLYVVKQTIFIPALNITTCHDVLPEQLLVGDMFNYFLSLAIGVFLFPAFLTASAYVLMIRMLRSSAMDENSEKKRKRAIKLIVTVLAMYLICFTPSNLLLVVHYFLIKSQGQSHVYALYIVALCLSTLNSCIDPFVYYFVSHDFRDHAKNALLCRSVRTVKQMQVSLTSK
The experiment in a line: SPR (table head: Octet); IgG captured via Fc, detergent solubilised FL-N PAR2 StaR as analyte. As to the method: (§1) For all eleven IgG1f_AEASS, affinities to human PAR2 were determined by SPR. The IgGs were captured via their Fc-fragment and detergent (LMNG/CHS) solubilised FL-N PAR2 StaR was used as analyte in solution. 50 mM HEPES pH 7.5, 150 mM NaCl, 0.02% LMNG was used as assay buffer. To minimize artefacts introduced by non-specific interaction of FL-N PAR2 StaR with the sensors, the CM3 sensors were used as basis to immobilize a high density of anti-hu-Fc capture antibody (BR-1008-39, GE Healthcare). IgGs were captured with relatively high levels of approximately 500 RU to achieve a higher ratio of specific to non-specific binding (while still maintaining conditions suitable for kinetic characterization). Affinities ranged from 6.5 nM to 130 pM. The koff values of the best candidates were at the lower assay limit. A minimum koff of 2.00E-05 s⁻¹ was reported (corresponding to 3% dissociation in 1500 s).

Assay [7] concerns the target T3, PAR2-3: P157: 1-377, glycosylated, …. The assay can be described thus: SPR (table head: Octet); IgG captured via Fc, FL-N PAR2 StaR as analyte; koff at the lower assay limit (minimum 2.00E-05 reported). The protocol: as §1
Background: BLI is a label-free optical method that tracks binding on a fibre tip over time.

B1: Y022870 (antibody, human IgG1, lambda, V domains shown)
VH: EVQLLESGGGLVQPGGSLRLSCAASGFSFSRYAITWVRQAPGKGLEWVSTISALGLETYYAESVRGRFTISRDNSKNTLYLQMNSLRAEDTAVYYCARGFHYTHSGKRYYYPFDIWGQGTLVTVSS
VL: QSALTQPASVSGSPGQSITISCTGTSSDVGSYNLVSWYQQHPGKAPKLMIYEGSKRPSGVSNRFSGSKSGNTASLTISGLQAEDEADYYCSQYATFIAFAVFGGGTKLTVLG
notes: also called Y22870
As to B1, in assay [1], the “IC50 (nM), SLIGKV agonist challenge, Human” value (“IC50 (nM) … Human” below) was found to be 61 nM. Moreover, the “IC50 (nM), SLIGKV agonist challenge, Cyno” value (shortened to “IC50 (nM) … Cyno”) in assay [2] is 88 nM. In addition, the “IC50 (nM), SLIGKV agonist challenge, Rhesus” value (“IC50 (nM) … Rhesus” below) in assay [3] worked out at 50 nM. In assay [4], the Kd (commonly the constant that tells how readily two partners part at equilibrium) is 0.45 nM; the off-rate (koff) (as a rule, the first-order rate constant of dissociation) was 1.9e-05 s⁻¹; the kon (usually a measure of how fast the partners come together) came to 41000 M⁻¹ s⁻¹; the t½ (usually the time in which the quantity being followed falls by half) is 10.3 h. Besides, the “% Max Inhibition, Bovine Trypsin challenge, IP-One” value (“% Max Inhibition” below) in assay [5] came out at 10%. Further, the kon in assay [6] amounted to 96000 M⁻¹ s⁻¹. Further, in assay [7], the koff is ≤ 2e-05 s⁻¹.

B2: Y022877 (antibody, human IgG1, lambda, V domains shown)
VH: EVQLLESGGGLVQPGGSLRLSCAASGFTFSRYAMTWVRQAPGKGLEWVSTISGLGQEAYYAGSVKGRFTISRDNSKNTLYLQMNSLRAEDTAVYYCARGFHYTHSGKRYYYPFDIWGQGTLVTVSS
VL: QSALTQPASVSGSPGQSITISCTGTSSDVGSYNLVSWYQQHPGKAPKLMIYEGSKRPSGVSNRFSGSKSGNTASLTISGLQAEDEADYYCSQYATFIAFAVFGGGTKLTVLG
notes: also called Y22877
As to B2, the “IC50 (nM) … Human” value in assay [1] is 52 nM. In assay [2], the “IC50 (nM) … Cyno” value came out at 74 nM. Further, the “IC50 (nM) … Rhesus” value in assay [3] worked out at 47 nM. In addition, in assay [4], the dissociation constant Kd is 0.55 nM, the koff is 1.7e-05 s⁻¹, the kon is 31000 M⁻¹ s⁻¹ and the “t½” value came to 11.5 h. The “% Max Inhibition” value in assay [5] was found to be 58%. Moreover, in assay [6], the on-rate constant (kon) turned out to be 68000 M⁻¹ s⁻¹. The koff in assay [7] turned out to be 2e-05 s⁻¹.

B3: Y022883 (antibody, human IgG1, lambda, V domains shown)
VH: EVQLLESGGGLVQPGGSLRLSCAASGFSFTRYAISWVRQAPGKGLEWVSVISGHGSEANYAESVKGRFTISRDNSKNTLYLQMNSLRAEDTAVYYCARGFHYTHSGKRYYYPFDIWGQGTLVTVSS
VL: QSALTQPASVSGSPGQSITISCTGTSSDVGSYNLVSWYQQHPGKAPKLMIYEGSKRPSGVSNRFSGSKSGNTASLTISGLQAEDEADYYCSQYATFIAFAVFGGGTKLTVLG
notes: also called Y22883; Y02283
As for B3, the “IC50 (nM) … Human” value in assay [1] was determined as 54 nM. In addition, in assay [2], the “IC50 (nM) … Cyno” value came to 68 nM. Besides, the “IC50 (nM) … Rhesus” value in assay [3] came out at 43 nM. Besides, in assay [4], the Kd was determined as 0.65 nM, the off-rate (koff) was found to be 2.3e-05 s⁻¹, the association rate constant (kon) is 36000 M⁻¹ s⁻¹ and the “t½” value turned out to be 8.3 h. Also, in assay [5], the “% Max Inhibition” value was 48%. The molecule also displayed a kon in assay [6] of 140000 M⁻¹ s⁻¹. In assay [7], the off-rate (koff) worked out at 2e-05 s⁻¹.
